Each block holds one binder with its values, some of them ahead of it.
Legend:
Details in all cases: both partners purified
[1] = target: T1, DNA-binding domain of SOX2 (aa 39-127) (human, UniProt P48431 39-127); assay: BLI; SOX2DBD or SOX2CTD with KIX or bromodomain; who was immobilised not given; global fit to a 1:1 binding model (BLItz Pro v.1.2.1.5)
T1 construct: also called SOX2DBD; DBDSOX2; source: E. coli BL21(DE3), purified from the supernatant (HisTrap HP, Superose 6 Increase)

[2] = target: T2, C-terminal domain of SOX2 (aa 150-317) (human, UniProt P48431 150-317); assay: as above
T2 construct: also called SOX2CTD; CTDSOX2; source: E. coli BL21(DE3), purified from the supernatant (HisTrap HP, Superose 6 Increase)

[3] = target: T3, full-length human SOX2 (recombinant, N-terminal His-tag, 327 amino acids) (human, UniProt P48431 1-317); assay: BLI; 0.2 mg/ml SOX2 immobilised on an AR2G chip, quenched with 1 M ethanolamine; p300 (0-400 nM), KIX (0-43 uM), fragments (3 uM KIX and BR, 0.8 uM KB) in PBS; global fit, 1:1 binding model; BLItz
T3 construct: human SOX2, full length, 317 amino acids; with the tag peptide 327 amino acids; Immobilised on an AR2G chip in BLI

full-length human SOX2 = target: T4, full-length human SOX2 (human, UniProt P48431 1-317); assay: BLI; SOX2 (0.2 mg/ml) immobilised on an AR2G chip, quenched with 1 M ethanolamine; p300 fragments in PBS; global fit to a 1:1 binding model (BLItz Pro v.1.2.1.5)
T4 construct: human SOX2, UniProt P48431, 317 amino acids; with the N-terminal His-tag peptide the recombinant protein has 327 amino acids; cloned into the pVFT1S plasmid
T4 sequence (P48431 whole entry, the tested form may be a part): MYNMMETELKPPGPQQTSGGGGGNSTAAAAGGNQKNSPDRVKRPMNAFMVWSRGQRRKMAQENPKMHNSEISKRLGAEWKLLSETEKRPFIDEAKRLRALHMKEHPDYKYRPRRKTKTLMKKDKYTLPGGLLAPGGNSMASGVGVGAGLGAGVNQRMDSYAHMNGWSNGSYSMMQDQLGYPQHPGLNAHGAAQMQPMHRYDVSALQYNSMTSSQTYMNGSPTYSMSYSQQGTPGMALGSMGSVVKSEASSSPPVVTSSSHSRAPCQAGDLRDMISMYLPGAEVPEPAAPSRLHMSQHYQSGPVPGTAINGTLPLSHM

T2 sequence (P48431 150-317): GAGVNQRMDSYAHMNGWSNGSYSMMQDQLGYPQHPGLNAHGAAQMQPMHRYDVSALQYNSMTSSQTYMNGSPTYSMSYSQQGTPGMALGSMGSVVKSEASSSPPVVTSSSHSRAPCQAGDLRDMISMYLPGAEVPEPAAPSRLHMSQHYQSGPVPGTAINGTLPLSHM
T1 sequence (P48431 39-127): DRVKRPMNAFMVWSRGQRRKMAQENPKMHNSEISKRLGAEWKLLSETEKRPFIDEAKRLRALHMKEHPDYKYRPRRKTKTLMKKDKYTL
T3 sequence (P48431 whole entry, the tested form may be a part): as the sequence (P48431 whole entry, the tested form may be a part) above

koff [1]: 0.0469 s⁻¹
kon [1]: 5060 M⁻¹ s⁻¹
koff [2]: 0.0849 s⁻¹
kon [2]: 1720 M⁻¹ s⁻¹
B1: p300 KIX domain (aa 566-646) (domain or fragment)
chain: not shown
notes: human p300, UniProt Q09472, KIX domain, aa 566-646; also called KIXp300; source: E. coli BL21(DE3), purified from the supernatant (HisTrap HP, Superose 6 Increase)

fold lower KD than p300BD [3]: 834 fold
fold lower KD than p300KIX [3]: 41.4 fold
B2: p300 KIX-BD fragment (aa 566-1139) (domain or fragment)
chain: not shown
notes: human p300, KIX + bromodomain, residues 566-1139; also called p300KB; KB; source: E. coli BL21(DE3), purified from the supernatant (HisTrap HP, Superose 6 Increase)

The next lines start with the binder.

B3: p300 bromodomain (aa 1067-1139) (domain or fragment, human, UniProt Q09472 1067-1139, looked up)
chain: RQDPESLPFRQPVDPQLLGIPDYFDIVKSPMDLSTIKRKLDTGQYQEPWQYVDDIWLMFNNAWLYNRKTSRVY
notes: human p300, bromodomain, residues 1067-1139; also called p300BD; BD; source: E. coli BL21(DE3), purified from the supernatant (HisTrap HP, Superose 6 Increase)
fold higher KD than p300KIX [3]: 20.1 fold

B4: p300 bromodomain (aa 1067-1139) (domain or fragment, human, UniProt Q09472 1067-1139, looked up)
chain: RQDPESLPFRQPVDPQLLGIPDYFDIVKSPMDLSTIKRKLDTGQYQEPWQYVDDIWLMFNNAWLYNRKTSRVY
notes: human p300, UniProt Q09472, bromodomain, aa 1067-1139; also called BD; p300BD; source: E. coli BL21(DE3), purified from the supernatant (HisTrap HP, Superose 6 Increase)
koff [1]: 0.0265 s⁻¹
kon [1]: 172 M⁻¹ s⁻¹
koff [2]: 0.0951 s⁻¹
Kd (full-length human SOX2): 54 µM
koff (full-length human SOX2): 0.00606 s⁻¹
kon (full-length human SOX2): 112 M⁻¹ s⁻¹

Reference: publication PMC10711550, “Molecular basis for SOX2-dependent regulation of super-enhancer activity” (Nucleic Acids Research, 2023)
